Reference: patent US20140212436A1

How the values were obtained:
Test in all cases: Biacore
[1] = target: FcγRIIaR (human) (UniProt P12318)
[2] = target: human FcγRI (human) (UniProt P12314)
[3] = target: human H131 FcγRIIa (human) (UniProt P12318)
[4] = target: human V158 FcγRIIIa (human) (UniProt P08637)
[5] = target: recombinant human FcγRIIb protein (human) (UniProt P31994)
recombinant human FcγRIIb protein (human), sequence (P31994 46-217 limits assumed): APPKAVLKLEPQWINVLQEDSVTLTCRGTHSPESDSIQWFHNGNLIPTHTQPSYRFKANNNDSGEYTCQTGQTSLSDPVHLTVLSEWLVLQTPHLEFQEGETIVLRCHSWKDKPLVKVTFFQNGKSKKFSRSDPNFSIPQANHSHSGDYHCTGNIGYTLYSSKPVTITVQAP

human H131 FcγRIIa (human), sequence (P12318 other isoform, or with tags, fused parts or gaps limits assumed): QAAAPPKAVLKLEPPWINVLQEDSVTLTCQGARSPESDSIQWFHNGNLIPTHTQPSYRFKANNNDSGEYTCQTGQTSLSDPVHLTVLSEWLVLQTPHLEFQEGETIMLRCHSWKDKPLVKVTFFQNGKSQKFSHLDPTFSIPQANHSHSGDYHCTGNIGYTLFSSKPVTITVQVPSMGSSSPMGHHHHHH
FcγRIIaR (human), sequence (P12318 34-217 H167R limits assumed): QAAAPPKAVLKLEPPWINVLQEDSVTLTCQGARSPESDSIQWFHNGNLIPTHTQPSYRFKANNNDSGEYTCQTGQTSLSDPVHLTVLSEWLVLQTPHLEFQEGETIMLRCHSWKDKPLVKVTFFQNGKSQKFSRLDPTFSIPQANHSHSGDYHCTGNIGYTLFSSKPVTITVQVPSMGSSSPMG
human FcγRI (human), sequence (P12314 16-288 limits assumed): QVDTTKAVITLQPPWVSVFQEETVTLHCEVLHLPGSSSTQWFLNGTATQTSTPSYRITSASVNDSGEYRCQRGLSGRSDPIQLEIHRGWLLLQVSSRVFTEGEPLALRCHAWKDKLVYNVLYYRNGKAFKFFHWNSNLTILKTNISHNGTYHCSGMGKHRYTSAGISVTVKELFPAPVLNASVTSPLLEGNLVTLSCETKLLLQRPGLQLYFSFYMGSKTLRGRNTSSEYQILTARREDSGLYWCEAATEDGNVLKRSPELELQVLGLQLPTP
human V158 FcγRIIIa (human), sequence (P08637 other isoform, or with tags, fused parts or gaps limits assumed): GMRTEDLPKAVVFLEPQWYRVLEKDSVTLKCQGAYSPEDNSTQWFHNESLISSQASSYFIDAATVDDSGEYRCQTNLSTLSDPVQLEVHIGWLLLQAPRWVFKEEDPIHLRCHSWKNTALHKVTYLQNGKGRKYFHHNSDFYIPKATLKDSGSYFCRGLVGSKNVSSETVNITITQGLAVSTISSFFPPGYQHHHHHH

Substance | Fold [1] | Kd [1] | Fold [2] | Kd [2] | Fold [3] | Kd [3] | Fold [4] | Kd [4] | Fold [5] | Kd [5]
A327D (antibody) | 1.6 | 536 nM | 2.06 | 0.16 nM | 0.733 | 882 nM | 0.398 | 481 nM | 1.33 | 1100 nM
A327N (antibody) | 0.609 | 1410 nM | 0.0279 | 11.8 nM |  |  |  |  | 0.843 | 1740 nM
G236D (antibody) | 0.758 | 1130 nM | 0.0211 | 15.6 nM | 0.167 | 3870 nM |  |  | 1.54 | 953 nM
G236D/S239D/S267E (antibody) | 26.7 | 32.2 nM | 0.0685 | 4.81 nM | 0.217 | 2980 nM |  |  | 84.8 | 17.3 nM
G236D/S267E/H268E (antibody) | 29.9 | 28.7 nM | 0.0902 | 3.65 nM | 0.103 | 6300 nM |  |  | 110 | 13.4 nM
G236D/S267E/L328F (antibody) | 59.9 | 14.3 nM | 0.0736 | 4.48 nM | 0.0301 | 21500 nM |  |  | 149 | 9.87 nM
G236N/S267E (antibody) | 3.27 | 263 nM | 0.0355 | 9.27 nM |  |  |  |  | 19.8 | 74.2 nM
G236S (antibody) | 2.33 | 369 nM | 0.0268 | 12.3 nM | 3.76 | 172 nM | 0.00367 | 52200 nM | 1.02 | 1440 nM
G236T (antibody) | 0.35 | 2460 nM | 0.0157 | 21 nM | 0.486 | 1330 nM |  |  | 0.00225 | 652000 nM
G237A (antibody) | 0.704 | 1220 nM | 0.0108 | 30.5 nM |  |  |  |  | 0.191 | 7680 nM
G237D/S267E (antibody) | 13.6 | 63.1 nM | 0.0874 | 3.77 nM |  |  |  |  | 17 | 86.1 nM
G237N/S267E (antibody) | 61.5 | 14 nM | 0.101 | 3.25 nM |  |  |  |  | 40.5 | 36.2 nM
H268D (antibody) | 4.19 | 205 nM | 2.35 | 0.14 nM | 1.89 | 342 nM | 3.08 | 62.2 nM | 3.06 | 480 nM
H268E (antibody) | 3.19 | 269 nM | 2.74 | 0.12 nM | 1.43 | 453 nM | 2.19 | 87.5 nM | 2.62 | 560 nM
IgG1/2ELLGG_S267E/L328F (antibody) | 269 | 3.19 nM | 2.35 | 0.14 nM | 0.993 | 651 nM |  |  | 221 | 6.63 nM
L234D/S267E (antibody) | 12.7 | 67.7 nM | 0.0286 | 11.5 nM |  |  | 0.14 | 1370 nM | 21.7 | 67.8 nM
L234E/S267E (antibody) | 10.7 | 80.4 nM | 0.131 | 2.51 nM |  |  |  |  | 15.1 | 97 nM
L234E/S267E/L328F (antibody) | 174 | 4.93 nM | 0.0425 | 7.75 nM | 0.0725 | 8920 nM |  |  | 195 | 7.53 nM
L234F (antibody) | 0.228 | 3760 nM | 0.0362 | 9.11 nM |  |  |  |  | 0.409 | 3590 nM
L234F/S267E (antibody) | 20.7 | 41.6 nM | 0.661 | 0.498 nM | 0.509 | 1270 nM | 0.0938 | 2040 nM | 26.4 | 55.7 nM
L234W (antibody) |  |  |  | 10.5 nM |  | 1160 nM |  | 6590 nM |  | 1770 nM
L235A (antibody) | 0.166 | 5180 nM | 0.0179 | 18.4 nM | 0.0486 | 13300 nM | 0.314 | 609 nM | 0.351 | 4180 nM
L235D/S267E (antibody) | 13 | 66.1 nM | 0.00039 | 854 nM |  |  |  |  | 16.7 | 88.1 nM

Substance | Fold [1] | Kd [1] | Fold [2] | Kd [2] | Fold [3] | Kd [3] | Fold [4] | Kd [4] | Fold [5] | Kd [5]
L235D/S267E/L328F (antibody) | 133 | 6.45 nM | 0.00057 | 573 nM | 0.275 | 2350 nM |  |  | 80.4 | 18.2 nM
L235F/S267E (antibody) | 32.5 | 26.4 nM | 0.0176 | 18.7 nM | 0.402 | 1610 nM |  |  | 28.4 | 51.7 nM
L235I (antibody) | 0.666 | 1290 nM | 0.0197 | 16.7 nM | 0.181 | 3580 nM | 0.903 | 212 nM | 0.908 | 1620 nM
L235Y (antibody) | 1.28 | 669 nM | 0.00232 | 142 nM | 1.35 | 479 nM | 0.504 | 380 nM | 1.05 | 1400 nM
L235Y/S239D/S267E (antibody) | 98.9 | 8.68 nM | 1.07 | 0.307 nM | 1.05 | 617 nM | 2.6 | 73.5 nM | 116 | 12.6 nM
L235Y/S267E (antibody) | 37.5 | 22.9 nM | 0.00347 | 95 nM | 0.941 | 687 nM |  |  | 37.2 | 39.4 nM
L235Y/S267E/H268E (antibody) | 48.2 | 17.8 nM | 0.0103 | 32.1 nM | 0.157 | 4130 nM | 0.428 | 447 nM | 69.9 | 21 nM
L235Y/S267E/L328F (antibody) | 171 | 5.02 nM | 0.00436 | 75.5 nM | 0.758 | 853 nM |  |  | 187 | 7.83 nM
S239D/S267E/H268E (antibody) |  |  |  | 0.326 nM |  | 817 nM |  |  |  | 6.91 nM
S239D/S267E/L328F (antibody) | 416 | 2.06 nM | 1.45 | 0.227 nM | 1.71 | 378 nM | 0.216 | 887 nM | 428 | 3.43 nM
S239E (antibody) | 0.688 | 1250 nM | 1.65 | 0.2 nM | 0.49 | 1320 nM | 3.49 | 54.8 nM | 0.803 | 1830 nM
S267A (antibody) | 4.29 | 200 nM | 1.15 | 0.287 nM | 1.22 | 530 nM | 0.952 | 201 nM |  | 408 nM
S267D (antibody) | 8.99 | 95.5 nM | 2.11 | 0.156 nM | 0.93 | 695 nM | 1.51 | 127 nM | 4.45 | 330 nM
S267E/A327D (antibody) | 16.7 | 51.3 nM | 1.66 | 0.198 nM |  |  | 0.00199 | 96300 nM | 21.2 | 69.1 nM
S267E/A327E (antibody) | 29.3 | 29.3 nM | 2.3 | 0.143 nM | 2.66 | 243 nM | 0.00894 | 21400 nM | 30.9 | 47.5 nM
S267E/H268E (antibody) | 41.7 | 20.6 nM | 3.52 | 0.0935 nM | 0.765 | 845 nM | 3.15 | 60.8 nM | 40.6 | 36.1 nM
S267E/H268E/L328F (antibody) | 253 | 3.4 nM | 0.991 | 0.333 nM | 0.826 | 783 nM | 0.092 | 2080 nM | 344 | 4.26 nM
S267E/L328Y (antibody) | 122 | 7.06 nM | 0.224 | 1.47 nM | 1.34 | 481 nM |  |  | 43.1 | 34.1 nM
S267E/N325L (antibody) | 41.5 | 20.7 nM |  |  |  |  |  |  | 31.5 | 46.6 nM
S267G (antibody) |  | 517 nM |  | 0.626 nM |  |  |  |  |  | 1450 nM
S298D (antibody) | 1.45 | 592 nM |  |  |  |  |  |  | 0.797 | 1840 nM
V266D (antibody) | 0.704 | 1220 nM |  |  |  |  |  |  | 0.147 | 10000 nM
